This is an account of results in patent US20170129940A1.

The chains are these.
B1: 7B13 (antibody, V domains shown)
VH: QVQLVESGGGVVQPGGSLRLSCAASGFSFSNYGMHWVRQAPGKGLEWVALIPSDGNYQYYTDSVKGRFTVSRDNSRNTLYLQMKSLRAEDTARYHCAHLGGGLFDFWGQGTLVTVSS
VL: QSALNQPRSVSGSPGQSVSISCTGSSSDVGGYEFVSWYQHHPGKAPKLIIYDVDKRPSGVPDRFSGSRSGDTASLTISGLQAEDEADYYCYSSADTWVFGGGTKLTVL
B2: 7I13 (antibody, V domains shown)
VH: QVQLVESGGGVVQPGRSLRLSCAASGFTFSNYGMHWVRQGPGKGLEWVAVISYDASSKYYTDSVQGRFTISRDNSKNTLFLQMNSLRGEDTAVYYCAKALRYLDWFLSDPFDYWGQGTLVTVSS
VL: EIVLTQSPGTLSLSPGERATLSCRASQSVSSDFLAWYQQKPGQAPRLLIYGASSRATGIPDRFSGSGSGTDFTLTISRLEPEDFAVYYCQQYAASPPFGQGTRLEIK
B3: 8I21 (antibody, V domains shown)
VH: LVELVESGGGVVQPGRSLRLSCAASGFTFSSDGMHWVRQSPGRGLEWVAFISSDGSTPYYADSVKGRFTISRDNSKNTLYLQMNSLRAEDTAMYFCAKDWALFRWLRTFDHWGQGTLVTVSS
VL: not shown
B4: 10P3 (antibody, V domains shown)
VH: EVQLVESGGGLVRPGGSLRLSCAASGFTFHNYRMNWVRQAPGKGLEWVANIKQDGSEKSYVDSVRGRFTTSRDNSKNSLYLQINSLRAEDTAVYYCARGEGYTYGVVYSYSAMDVWGQGTTVIVSS
VL: SYELTQPPSVSVSPGQTARITCSGNVLPNQYASWYQQKPGQAPVLVIYKDTERPSGIPGRFSGSSSGTTVTLTISGVQAEDEADYYCQSADSSGADYVFGTGTKVTVL
B5: 10F7 (antibody, V domains shown)
VH: EVQLVESGGGLVQPGRSLRLSCTASGFTFGDYAMSWFRQAPGKGLEWVGFIRSKAYGGTTEYAASVKGRFTISRDDSKSIAYLQMNSLKTEDTAVYYCTRASSLLWLLNPQPNFDYWGQGTLVTVSS
VL: SYVLTQPPSVSVAPGQTARITCGGNNIGSNNVHWYQQKPGQAPVLVVYDDSDRPSGIPERFSGSNSGNTATLTISRVEAGDEADYYCQVWDSSSDHPVFGGGTKLTVL
B6: 15D8 (antibody, V domains shown)
VH: EVQLVQSGAEVKKPGESLKISCQASGYSFTNYWIAWVRQMPGKGLEWMGIIYPGDSDIKYSPSFRGQVTISADKSISNAFLQWRSLRASDTAMYYCARHAIRGDGFDYWGQGTLVTVSS
VL: SYELTQPPSVSVSPGQTATITCSGDKLGEKYACWYQQKPGQSPVLVMYQDTKRPSGIPERFSGSNSGNTATLTISGTRAMDEADYYCQAWDTNTVIFGGGTKLTVL
B7: 4N10 (antibody, V domains shown)
VH: QVQLVQSGAEVKKPGSSVRVSCKASGGTFSSYVIIWVRQAPGQGLEWMGGVIPIFDTVNYAQKFQGRVTITADESTSTAYMELSSLKSEDTAVYYCARGILAYCGGDCYNTPYGMDVWGQGTTVTVSS
VL: DIQMTQSPSILSASVGDRVTITCRASQSISSWLAWYQQKPGKAPKLLIYKASSLEIGVPSRISGSGSGTEFTLTISSLQPDDFATYYCQQYNSSWTFGQGTKVEIK
B8: 4I22 (antibody, V domains shown)
VH: QVQLVESGGGVVQPGRSLRLSCVASGFTFSSYAMHWVRQAPGKGLEWVAVISYDGDNKFYADSVKGRFRISRDTSKNTLYLEMNSLRAADTAIYYCAREELVGLMPPYYNYGLDVWGQGTTVTVSS
VL: QSVLTQPPSVSAAPGQKVTISCSGSNSNIGNNYVSWYQQLPGRAPKLLIYDNDHRPSGIPDRFSGSKSGTSATLVITGLQTGDEADYYCETWDTSLSAAVVFGGGTKLTVL
B9: 8L13 (antibody, V domains shown)
VH: QVQLLESGGGVVQPGRSLRLSCAASGFTFSNYGMHWVRQAPGKGLEWVAVIWNDGSKKYYAESVKGRFTISRDNSKNTVYLQMNSLRAEDTAVYYCARDEGVQMVFAMPDYGMDVWGQGTTVTVSS
VL: SYELTQPPSVSVSPGQTASITCSGDKLGDKFACWYQQRPGQSPILVIYQDSKRPSGIPERFSGSNSGNTATLTIRGTQAMDEADYYCQAWDSSTAHYVFGTGTKVTVL

The target of the first experiment is T1, hCMV gH + gL + UL128 + UL130 + UL131A (co-expressed in HEK293T cells) (human cytomegalovirus), P12824. The experiment can be described thus: competitor: 9I6-biotin; cell staining. The following applies: remark: other sources report otherwise.
As to B1, the Inhibition of binding (%) is 100%.
The same measure, in the same setting: as for B2, the figure is 0%.

Another experiment addresses T1, hCMV gH + gL + UL128 + UL130 + UL131A …. The experiment can be described thus: competitor: 6G4-biotin; cell staining. The following applies: remark: other sources report otherwise.
Turning to B1, the Inhibition of binding (%) was 100%.
For the molecule B3, the Inhibition of binding (%) was 0%.
On the same count and under the same terms, with B2 the figure was 0%; with B4, 0%.
With B5, the Inhibition of binding (%) was 0%.
For B6, the Inhibition of binding (%) worked out at 0%.
The same measure, in the same setting: as for B7, the figure is 0%.

The target is the same in a further experiment. The experiment can be described thus: competitor: 8I21-biotin; cell staining. The note with it: remark: other sources report otherwise.
B1: the Inhibition of binding (%) was found to be 0%.
Same read-out and setting: as for B3, the figure is 100%.
Regarding B2, the Inhibition of binding (%) amounted to 0%.
On the same count and under the same terms, with B4 the figure was 0%; with B5, 0%.
Same read-out and setting: as for B6, the figure is 0%.
The same measure, in the same setting: with B7 the figure was 90%; with B8, 0%.

The next experiment shares this target. The experiment can be described thus: competitor: 5A2-biotin; cell staining. The note with it: remark: other sources report otherwise.
Regarding B3, the Inhibition of binding (%) amounted to 95%.
As to B5, the Inhibition of binding (%) turned out to be 0%.
The same measure, in the same setting: with B6 the figure was 0%; with B7, 100%; with B8, 0%.

The target is the same in the next experiment. Put plainly: competitor: 8C15-biotin; cell staining. The note with it: remark: other sources report otherwise.
In the case of B1, the Inhibition of binding (%) turned out to be 100%.
Same read-out and setting: with B2 the figure was 0%.

A further experiment shares this target. Put plainly: competitor: 8J16-biotin; cell staining. The following applies: remark: other sources report otherwise.
As for B1, the Inhibition of binding (%) came to 100%.
Same read-out and setting: as for B2, the figure is 0%; as for B8, 0%.

The target is the same in the next experiment. Put plainly: competitor: 4I22-biotin; cell staining. The following applies: remark: other sources report otherwise.
B3: the Inhibition of binding (%) turned out to be 0%.
Take B4: the Inhibition of binding (%) stood at 0%.
Turning to B5, the Inhibition of binding (%) turned out to be 100%.
The same measure, in the same setting: as for B6, the figure is 0%.
The same measure, in the same setting: as for B7, the figure is 0%; as for B8, 100%.

A further experiment has the same target. Put plainly: competitor: 15D8-biotin; cell staining. The following applies: remark: other sources report otherwise.
On to B3, for which the Inhibition of binding (%) stood at 0%.
The same measure, in the same setting: with B4 the figure was 0%.
As for B5, the Inhibition of binding (%) was found to be 0%.
The same measure, in the same setting: with B6 the figure was 100%.
Same read-out and setting: as for B7, the figure is 0%.

Another experiment shares this target. The experiment can be described thus: competitor: 4N10-biotin; cell staining. The following applies: remark: other sources report otherwise.
Take B3: the Inhibition of binding (%) was found to be 90%.
Still for that read-out and setting: as for B5, the figure is 0%.
The same measure, in the same setting: with B6 the figure was 0%.
Regarding B7, the Inhibition of binding (%) worked out at 100%.
Still for that read-out and setting: with B8 the figure was 0%.

The next experiment has the same target. The experiment can be described thus: competitor: 10F7-biotin; cell staining. The following applies: remark: other sources report otherwise.
Consider B9, for which the Inhibition of binding (%) came to 100%.
On the same count and under the same terms, with B5 the figure was 100%.
On the same count and under the same terms, as for B6, the figure is 0%; as for B7, 0%.
As for B8, the Inhibition of binding (%) came out at 100%.

The target is the same in the next experiment. Put plainly: competitor: 2F4-biotin; cell staining. The note with it: remark: other sources report otherwise.
For the molecule B3, the Inhibition of binding (%) is 0%.
On the same count and under the same terms, as for B4, the figure is 0%; as for B5, 100%; as for B6, 0%.
Consider B7, for which the Inhibition of binding (%) is 0%.
On the same count and under the same terms, as for B8, the figure is 100%.

The next experiment has the same target. The experiment can be described thus: competitor: 1F11-biotin; cell staining. The following applies: remark: other sources report otherwise.
B3: the Inhibition of binding (%) came out at 0%.
For the molecule B2, the Inhibition of binding (%) came out at 0%.
As for B4, the Inhibition of binding (%) stood at 0%.
Consider B9, for which the Inhibition of binding (%) turned out to be 100%.
As for B5, the Inhibition of binding (%) stood at 100%.
Same read-out and setting: with B6 the figure was 0%; with B7, 0%.
Same read-out and setting: with B8 the figure was 100%.

For another experiment the target is unchanged. The experiment can be described thus: competitor: 2C12-biotin; cell staining. The following applies: remark: other sources report otherwise.
For B1, the Inhibition of binding (%) worked out at 100%.
Same read-out and setting: as for B3, the figure is 0%.
On the same count and under the same terms, with B2 the figure was 0%.
On the same count and under the same terms, with B4 the figure was 0%.
In the case of B5, the Inhibition of binding (%) came out at 0%.
On the same count and under the same terms, as for B6, the figure is 0%; as for B7, 0%.
Consider B8, for which the Inhibition of binding (%) was found to be 0%.
